Assay results: publication PMC9998937

Target: T1, ArcR (Staphylococcus aureus NCTC8325) (UniProt Q2FUY1)
T1 sequence: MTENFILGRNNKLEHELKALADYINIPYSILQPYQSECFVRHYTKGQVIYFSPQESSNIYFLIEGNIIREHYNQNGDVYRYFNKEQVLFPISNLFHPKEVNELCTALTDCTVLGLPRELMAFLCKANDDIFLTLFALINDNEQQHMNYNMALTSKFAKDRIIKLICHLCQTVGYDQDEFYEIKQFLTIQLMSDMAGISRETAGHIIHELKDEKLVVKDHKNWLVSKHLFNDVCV
Assay: EMSA

Sequence: ACACCAGTTAACTTTTTGTCTTGTTGTGACATAGTCATCCCTCCACAATTTATAATAATTATAATTTAATACATATTATAATTTAACCCCATCAAAATTACAATTAAACATGCTCAAGATGATTAAAAAATCAGAAAATTTTAATTTTTTCGCTTTACAGTACTAAATAGTTATTGAATAGTACACTTAAAAAGCTTACAATAATGGGTATATTTAAATAGATGGGAGACTAAATATGGAAGAT (double strand) [katA promoter region]
- binding: binds

Sequence: AGCGCGTGTTGTTATGTCGCGAATGGTAATCTTTTCTAAATCTTTTTCTTGTAGTAATTTAGTGAACGCTTGTTTAATGGAGGACTTTGTCTTTCTAATTCGCCTATCTTCTTTCAAAAATAAATCAACCTCCTTGTGTTATTGAACAATGTGGGTGTATTTGTCTATTAATGAACGTATTGATGAACATTGTGTATTGTTTATTCCCACTTACATATTATAATAGACAACATGCGAAATATTCAACACATTGTCTAATAAGGAGGT (double strand) [tetA promoter region]
- binding: no binding
